Test results as given in US20200354411A1, “Chimeric Molecule for Targeting c-Myc in Cells” (priority 2017, published 2020).

Target: c-Myc (UniProt P01106)
Assay: cell-based or functional assay

Chain of c-Myc (P01106 whole entry): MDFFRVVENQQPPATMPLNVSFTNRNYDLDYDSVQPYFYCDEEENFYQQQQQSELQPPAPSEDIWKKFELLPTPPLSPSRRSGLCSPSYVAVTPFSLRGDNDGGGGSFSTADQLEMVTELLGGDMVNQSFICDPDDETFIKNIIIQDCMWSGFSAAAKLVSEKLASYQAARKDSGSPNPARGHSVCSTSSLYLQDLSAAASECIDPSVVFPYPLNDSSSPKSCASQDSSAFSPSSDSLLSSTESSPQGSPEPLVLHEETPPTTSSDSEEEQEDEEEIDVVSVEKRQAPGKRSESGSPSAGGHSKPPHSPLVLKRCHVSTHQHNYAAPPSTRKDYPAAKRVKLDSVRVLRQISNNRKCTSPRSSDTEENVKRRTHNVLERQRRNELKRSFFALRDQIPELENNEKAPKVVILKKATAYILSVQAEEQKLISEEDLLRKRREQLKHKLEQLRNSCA

decrease in Myc reporter activity at 150 µM [%] | luciferase controlled by E-Box, A431 cells, 6 hours [µM] | decrease in Myc reporter activity at 400 µM [%] | Substance
< 75 | 75 | – | CAD-H1 (Cadherin cell targeting peptide fused to H1)
– | 200 | < 75 | Int-H1 (Antenapedia cell targeting peptide fused to H1)

Substance | decrease in Myc reporter activity at 150 µM [%] | luciferase controlled by E-Box, A431 cells, 6 hours [µM] | decrease in Myc reporter activity at 400 µM [%]
Tat-H1 (TAT cell targeting peptide fused to H1) | – | 500 | –
